This note sets out measurements from patent US20250003951A1 (OXFORD UNIVERSITY INNOVATION, published 2025).

What all share (assay): cell-based or functional assay
One experiment concerns the target T1, OX993-414 (human).
T1 peptide: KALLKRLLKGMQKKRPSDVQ

In a further experiment the target is T2, OX993-413 (human).
T2 peptide: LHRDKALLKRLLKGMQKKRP

In the next experiment the target is T3, OX289-052 (human).
T3 peptide: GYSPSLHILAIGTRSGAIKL

The next experiment concerns the target T4, OX1149-290 (human).
T4 peptide: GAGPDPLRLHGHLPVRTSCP

The next experiment concerns the target T5, OX289-205 (human).
T5 peptide: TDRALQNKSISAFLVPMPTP

A further experiment addresses T6, OX289-075 (human).
T6 peptide: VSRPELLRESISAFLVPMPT

For a further experiment, the target named is T7, OX628-80 (human).
T7 peptide: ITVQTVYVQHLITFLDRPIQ

For another experiment, the target named is T8, OX628-81 (human).
T8 peptide: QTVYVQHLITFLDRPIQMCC

A further experiment deals with T9, OX289-074 (human).
T9 peptide: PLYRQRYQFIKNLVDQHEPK

The target of the next experiment is T10, OX289-073 (human).
T10 peptide: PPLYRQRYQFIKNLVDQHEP

B1: OX993 Peptides 413/414 clone 2 TCR (TCR)
TCR alpha: AQSVTQLGSHVSVSEGALVLLRCNYSSSVPPYLFWYVQYPNQGLQLLLKYTTGATLVKGINGFEAEFKKSETSFHLTKPSAHMSDAAEYFCAVSPPAQKLVFGTGTRLLVSPNIQNPDPAVYQLRD
TCR beta 1: NAGVTQTPKFQVLKTGQSMTLQCAQDMNHEYMSWYRQDPGMGLRLIHYSVGAGITDQGEVPNGYNVSRSTTEDFPLRLLSAAPSQTSVYFCASQETGVGGELFFGEGSRLTVLEDLKNVFPPEVAVFEPS
TCR beta 2: NAGVTQTPKFQVLKTGQSMTLQCAQDMNHEYMSWYRQDPGMGLRLIHYSVGAGITDQGEVPNGYNVSRSTTEDFPLRLLSAAPSQTSVYFCASSTTAVVSPLHFGNGTRLTVTEDLNKVFPPEVAVFEPS
For B1, the “Clone size (percent repertoire), IFNγ+ sorted T cells after peptide stimulation” value (from here on “Clone size (percent repertoire)”) with OX993-414 and in the experiment with OX993-413 was 13.7 % of repertoire throughout.

B2: OX289 Peptide 52 clone 2 TCR (TCR, V domains shown)
V domain 1: EDKVVQSPLSLVVHEGDTVTLNCSYEVTNFRSLLWYKQEKKAPTFLFMLTSSGIEKKSGRLSSILDKKELSSILNITATQTGDSAIYLCAVGHFSSRSSGSARQLTFGSGTQLTVLP
V domain 2: DAGVIQSPRHEVTEMGQEVTLRCKPISGHNSLFWYRQTMMRGLELLIYFNNNVPIDDSGMPEDRFSAKMPNASFSTLKIQPSEPRDSAVYFCASSLKVGVDSSYNEQFFGPGTRLTVLE
As to B2, the “Clone size (percent repertoire)” value with OX289-052 is 10.7 % of repertoire.

B3: OX993 Peptides 413/414 clone 1 TCR (TCR)
TCR alpha 1: GESVGLHLPTLSVQEGDNSIINCAYSNSASDYFIWYKQESGKGPQFIIDIRSNMDKRQGQRVTVLLNKTVKHLSLQIAATQPGDSAVYFCAEIGSGAGSYQLTFGKGTKLSVIPNIQNPDPAVYQLRD
TCR alpha 2: GESVGLHLPTLSVQEGDNSIINCAYSNSASDYFIWYKQESGKGPQFIIDIRSNMDKRQGQRVTVLLNKTVKHLSLQIAATQPGDSAVYFCAENQGGSSYKLIFGSGTRLLVRPDIQNPDPAVYQLRD
TCR beta: DTGVSQNPRHKITKRGQNVTFRCDPISEHNRLYWYRQTLGQGPEFLTYFQNEAQLEKSRLLSDRFSAERPKGSFSTLEIQRTEQGDSAMYLCASSSQSGVDTEAFFGQGTRLTVVEDLNKVFPPEVAVFEPS
B3: the “Clone size (percent repertoire)” value with OX993-414 and in the experiment with OX993-413 was 26.7 % of repertoire throughout.

B4: OX1149 Peptide 290 clone 1 TCR (TCR, V domains shown)
V domain 1: GENVEQHPSTLSVQEGDSAVIKCTYSDSASNYFPWYKQELGKRPQLIIDIRSNVGEKKDQRIAVTLNKTAKHFSLHITETQPEDSAVYFCAASIATDKLIFGTGTRLQVFP
V domain 2: KAGVTQTPRYLIKTRGQQVTLSCSPISGHRSVSWYQQTPGQGLQFLFEYFSETQRNKGNFPGRFSGRQFSNSRSEMNVSTLELGDSALYLCASSWRGQGEGYTFGSGTRLTVVE
Turning to B4, in the experiment with OX1149-290, the “Clone size (percent repertoire)” value is 20.4 % of repertoire.

B5: OX289 Peptides 75/205 clone 3 TCR (TCR, V domains shown)
V domain 1: NSVTQMEGPVTLSEEAFLTINCTYTATGYPSLFWYVQYPGEGLQLLLKATKADDKGSNKGFEATYRKETTSFHLEKGSVQVSDSAVYFCALRGRNQGGKLIFGQGTELSVKP
V domain 2: GAVVSQHPSRVICKSGTSVKIECRSLDFQATTMFWYRQFPKQSLMLMATSNEGSKATYEQGVEKDKFLINHASLTLSTLTVTSAHPEDSSFYICSARLSSGGGYEQFFGPGTRLTVLE
For the molecule B5, the “Clone size (percent repertoire)” value in the experiment with OX289-205 and with OX289-075 was 13.9 % of repertoire in each case.

B6: OX289 Peptide 52 clone 1 TCR (TCR)
TCR alpha: AQSVTQPDIHITVSEGASLELRCNYSYGATPYLFWYVQSPGQGLQLLLKYFSGDTLVQGIKGFEAEFKRSQSSFNLRKPSVHWSDAAEYFCAVGAYSSASKIIFGSGTRLSIRPNIQNPDPAVYQLRD
TCR beta 1: EPEVTQTPSHQVTQMGQEVILRCVPISNHLYFYWYRQILGQKVEFLVSFYNNEISEKSEIFDDQFSVERPDGSNFTLKIRSTKLEDSAMYFCASRDRGSGANVLTFGAGSRLTVLEDLKNVFPPEVAVFEPS
TCR beta 2: AVVSQHPSWVICKSGTSVKIECRSLDFQATTMFWYRQFPKQSLMLMATSNEGSKATYEQGVEKDKFLINHASLTLSTLTVTSAHPEDSSFYICSGGWGPNTGELFFGEGSRLTVLEDLKNVFPPEVAVFEPS
Take B6: in the experiment with OX289-052, the “Clone size (percent repertoire)” value is 27.3 % of repertoire.

B7: OX1149 Peptide 290 clone 2 TCR (TCR, V domains shown)
V domain 1: RGNGKNQVEQSPQSLIILEGKNCTLQCNYTVSPFSNLRWYKQDTGRGPVSLTIMTFSENTKSNGRYTATLDADTKQSSLHITASQLSDSASYICVVTGGANNLFFGTGTRLTVIP
V domain 2: KAGVTQTPRYLIKTRGQQVTLSCSPISGHRSVSWYQQTPGQGLQFLFEYFSETQRNKGNFPGRFSGRQFSNSRSEMNVSTLELGDSALYLCASSEAGEWTQYFGPGTRLTVLE
B7: the “Clone size (percent repertoire)” value with OX1149-290 is 7 % of repertoire.

B8: OX289 Peptides 75/205 clone 1 TCR (TCR)
TCR alpha 1: NSVTQMEGPVTLSEEAFLTINCTYTATGYPSLFWYVQYPGEGLQLLLKATKADDKGSNKGFEATYRKETTSFHLEKGSVQVSDSAVYFCALRHKAAGNKLTFGGGTRVLVKPNIQNPDPAVYQLRD
TCR alpha 2: QQKEKSDQQQVKQSPQSLIVQKGGISIINCAYENTAFDYFPWYQQFPGKGPALLIAIRPDVSEKKEGRFTISFNKSAKQFSLHIMDSQPGDSATYFCAALFDGGSQGNLIFGKGTKLSVKPNIQNPDPAVYQLRD
TCR beta: AVVSQHPSWVICKSGTSVKIECRSLDFQATTMFWYRQFPKQSLMLMATSNEGSKATYEQGVEKDKFLINHASLTLSTLTVTSAHPEDSSFYICSASGPEKLFFGSGTQLSVLEDLNKVFPPEVAVFEPS
Turning to B8, the “Clone size (percent repertoire)” value with OX289-205 and in the experiment with OX289-075 was 42.4 % of repertoire throughout.

B9: OX1149 Peptide 290 clone 3 TCR (TCR)
TCR alpha 1: GDAKTTQPNSMESNEEEPVHLPCNHSTISGTDYIHWYRQLPSQGPEYVIHGLTSNVNNRMASLAIAEDRKSSTLILHRATLRDAAVYYCILVEGNEKLTFGTGTRLTIIPNIQNPDPAVYQLRD
TCR alpha 2: SQELEQSPQSLIVQEGKNLTINCTSSKTLYGLYWYKQKYGEGLIFLMMLQKGGEEKSHEKITAKLDEKKQQSSLHITASQPSHAGIYLCGADVQGSQGNLIFGKGTKLSVKPNIQNPDPAVYQLRD
TCR beta: EPEVTQTPSHQVTQMGQEVILRCVPISNHLYFYWYRQILGQKVEFLVSFYNNEISEKSEIFDDQFSVERPDGSNFTLKIRSTKLEDSAMYFCASRLGGRTTEAFFGQGTRLTVVEDLNKVFPPEVAVFEPS
Turning to B9, the “Clone size (percent repertoire)” value in the experiment with OX1149-290 is 4.8 % of repertoire.

B10: OX993 Peptides 413/414 clone 3 TCR (TCR, V domains shown)
V domain 1: RGEDVEQSLFLSVREGDSSVINCTYTDSSSTYLYWYKQEPGAGLQLLTYIFSNMDMKQDQRLTVLLNKKDKHLSLRIADTQTGDSAIYFCAEKKEGFKTIFGAGTRLFVKA
V domain 2: NAGVTQTPKFQVLKTGQSMTLQCAQDMNHEYMSWYRQDPGMGLRLIHYSVGAGITDQGEVPNGYNVSRSTTEDFPLRLLSAAPSQTSVYFCASQETGVGGELFFGEGSRLTVLE
On to B10, for which the “Clone size (percent repertoire)” value with OX993-414 and with OX993-413 was 11.6 % of repertoire each time.

B11: OX628 Peptides 80/81 clone 3 TCR (TCR, V domains shown)
V domain 1: QKEVEQNSGPLSVPEGAIASLNCTYSDRGSQSFFWYRQYSGKSPELIMSIYSNGDKEDGRFTAQLNKASQYVSLLIRDSQPSDSATYLCAVSAGGTSYGKLTFGQGTILTVHP
V domain 2: DTAVSQTPKYLVTQMGNDKSIKCEQNLGHDTMYWYKQDSKKFLKIMFSYNNKELIINETVPNRFSPKSPDKAHLNLHINSLELGDSAVYFCASSQVLRGEQYFGPGTRLTVTE
As to B11, the “Clone size (percent repertoire)” value in the experiment with OX628-80 and with OX628-81 was 4.2 % of repertoire in each case.

B12: OX628 Peptides 80/81 clone 2 TCR (TCR, V domains shown)
V domain 1: GQQLNQSPQSMFIQEGEDVSMNCTSSSIFNTWLWYKQDPGEGPVLLIALYKAGELTSNGRLTAQFGITRKDSFLNISASIPSDVGIYFCAGANNNARLMFGDGTQLVVKP
V domain 2: SAVISQKPSRDICQRGTSLTIQCQVDSQVTMMFWYRQQPGQSLTLIATANQGSEATYESGFVIDKFPISRPNLTFSTLTVSNMSPEDSSIYLCSVTPGGGVNTEAFFGQGTRLTVVE
Regarding B12, the “Clone size (percent repertoire)” value in the experiment with OX628-80 and in the experiment with OX628-81 was 13.5 % of repertoire each time.

B13: OX628 Peptides 80/81 clone 1 TCR (TCR, V domains shown)
V domain 1: GQQLNQSPQSMFIQEGEDVSMNCTSSSIFNTWLWYKQEPGEGPVLLIALYKAGELTSNGRLTAQFGITRKDSFLNISASIPSDVGIYFCAGHQIQGAQKLVFGQGTRLTINP
V domain 2: NAGVTQTPKFRILKIGQSMTLQCTQDMNHNYMYWYRQDPGMGLKLIYYSVGAGITDKGEVPNGYNVSRSTTEDFPLRLELAAPSQTSVYFCASSYSGMNTEAFFGQGTRLTVVE
Regarding B13, the “Clone size (percent repertoire)” value with OX628-80 and with OX628-81 was 55.1 % of repertoire each time.

B14: OX289 Peptides 73/74 clone 3 TCR (TCR)
TCR alpha: AQSVTQLDSQVPVFEEAPVELRCNYSSSVSVYLFWYVQYPNQGLQLLLKYLSGSTLVKGINGFEAEFNKSQTSFHLRKPSVHISDTAEYFCAVSGTGANSKLTFGKGITLSVRPDIQNPDPAVYQLRD
TCR beta 1: GAGVSQSPSNKVTEKGKDVELRCDPISGHTALYWYRQSLGQGLEFLIYFQGNSAPDKSGLPSDRFSAERTGGSVSTLTIQRTQQEDSAVYLCASSDPISGRGDEQFFGPGTRLTVLEDLKNVFPPEVAVFEPS
TCR beta 2: GAGVSQSPSNKVTEKGKDVELRCDPISGHTALYWYRQSLGQGLEFLIYFQGNSAPDKSGLPSDRFSAERTGGSVSTLTIQRTQQEDSAVYLCASSFGGGAWNEQFFGPGTRLTVLEDLKNVFPPEVAVFEPS
Regarding B14, the “Clone size (percent repertoire)” value with OX289-074 and with OX289-073 was 8.67 % of repertoire in each case.
